Measured values published in patent publication US20250340646A1 (ELPIS BIOPHARMACEUTICALS, published 2025).
Read-outs that look alike come from different tables or passages of the source.

Legend:
biotinylated PD-L1 [1] = molecular target: T1, biotinylated PD-L1 (Homo sapiens (Human), UniProt Q9NZQ7 19-238, biotinylated; site not stated); experiment: ELISA, anti-human Fc capture, biotinylated PD-L1
Experimental: A 384 well plate was immobilized with anti-human Fc at final concentration of 2 μg/mL in 1×PBS in total volume of 25 μL per well. The plate was incubated overnight at 4° C. followed by blocking with 80 μL of superblock per well for 1 hour. […] In between each step, the plate was washed 3 times with 1×PBST in a plate washer. […] The plate was read at OD450 nm Biotek plate reader and the binding correlation was plotted with Prism 8.1 software.

[2] = molecular target: T2, PD-L1 biotinylated (PD-1/PD-L1 TR-FRET assay kit, BPS 72038) (Homo sapiens (Human), UniProt Q9NZQ7 19-238, biotinylated; site not stated); experiment: HTRF competition, competitor PD-1-Eu
T2 construct: Kit reagent
Experimental: (§1) Briefly, 1× Immuno buffer 1 was made. […] For each well in 384-well plate, serial diluted scFvs and regents were added according to manufacturer's recommended volume. Samples were incubated at room temperature for 1.5 hours then the fluorescent intensity was read with Biotek Neo2 plate reader using manufacture's instrument setting for the assay.

[3] = molecular target: T3, human PD-L1-HIS tagged recombinant protein (human, UniProt Q9NZQ7 19-238); experiment: SPR, Protein A capture, PD-L1-HIS analyte
T3 construct: also called hPD-L1-HIS; PD-L1 HIS tagged protein

[4] = molecular target: T4, full-length human PD-L1 on K562 cells (human, UniProt Q9NZQ7 19-290); experiment: FACS, PD-L1/K562 cells, anti-hFc Alexa Fluor 647
T4 construct: also called PD-L1/K562; cell surface human PD-L1
Experimental: Cells were spun down at 1200 rpm for 5 minutes at 4° C. to remove primary antibodies. Cells were then washed once with 200 μL of full medium per well. […] Samples were spun down at 1200 rpm for 5 minutes at 4° C. and washed twice with 200 μL of 1×PBS per well. Reconstituted samples in 200 μL of 1×PBS and read on Attune NxT cytometer.

[5] = molecular target: PD-L1 on PD-L1 aAPC/CHOK1 cells (Promega J1250); experiment: cell-based or functional assay
[6] = molecular target: T2, PD-L1 biotinylated (PD-1/PD-L1 TR-FRET …); experiment: HTRF competition, competitor PD-1-Eu; remark: listed apart in the source
Experimental: as §1

biotinylated PD-L1 [7] = molecular target: T1, biotinylated PD-L1; experiment: ELISA as described in Example 7 (value equals Table 17)
[8] = molecular target: T3, human PD-L1-HIS tagged recombinant …; experiment: SPR, IgG on Protein A, PD-L1-HIS analyte
Experimental: The assay was run with Biacore T200 control software version 2.0. For each cycle, 1 μg/mL of anti-hPD-L1-IgG was captured for 60 seconds at flow rate of 10 μl/min on flow cell 2 in 1×HBSP buffer on Protein A sensor chip. […] The flow cells were then regenerated with Glycine pH 2 for 60 seconds at flow rate of 30 μl/min. […] The specific binding response unit was derived from subtraction of binding to reference flow cell 1 from antibody captured flow cell 2.

[9] = molecular target: T2, PD-L1 biotinylated (PD-1/PD-L1 TR-FRET …); experiment: HTRF competition, competitor PD-1-Eu; remark: listed apart in the source
Experimental: as §1

[10] = molecular target: PD-L1 on PD-L1 aAPC/CHOK1 cells (Promega J1250); experiment: cell-based or functional assay; remark: listed apart in the source
[11] = molecular target: PD-L1 on PD-L1 aAPC/CHOK1 cells (Promega J1250); experiment: cell-based or functional assay; remark: listed apart in the source
[12] = molecular target: T3, human PD-L1-HIS tagged recombinant …; experiment: ELISA, coated PD-L1-HIS, anti-hFc HRP
Experimental: The plate was incubated overnight at 4° C. followed by blocking with 80 μL of superblock per well for 1 hour. […] In between each step, the plate was washed 3 times with 1×PBST in a plate washer. The plate was then developed with 20 μL of TMB substrate for 5 min and stopped by adding 20 μL of 2N sulfuric acid. The plate was read at OD450 nm Biotek plate reader and then plotted in Prism 8.1 software.

[13] = molecular target: T5, recombinant His-tagged human IL-2Rα (human, UniProt P01589 22-213, limits assumed); experiment: ELISA, coated His-tagged human IL-2Rα, OD 450 nm
T5 construct: also called IL-2Rα-HIS; CD25
T5 sequence (looked up): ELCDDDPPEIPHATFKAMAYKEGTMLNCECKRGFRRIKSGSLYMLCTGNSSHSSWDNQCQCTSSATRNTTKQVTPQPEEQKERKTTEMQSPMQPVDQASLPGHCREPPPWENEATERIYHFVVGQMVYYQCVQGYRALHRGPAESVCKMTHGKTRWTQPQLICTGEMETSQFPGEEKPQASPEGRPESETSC
Experimental: (§2) For monovalent IL-2 Fc-fusion proteins, recombinant His-tagged human IL-2Rα and IL-2Rβ were added in 25 μL of 1×PBS to wells of 384-well plate and incubated overnight at 4° C. to coat the plates. Plates were washed three times with 0.05% Tween20/1×PBS. Plates were blocked with 100 μL of SuperBlock for 1 hr at RT and then washed 3 times with 0.05% Tween20/1×PBS. IL-2 mutants were diluted in 0.05% Tween 20/1×PBS from 1000 nM to 0 nM and added to plates for 2 hrs at room temperature. Plates were then washed 6 times with 0.05% Tween20/1×PBS. Anti-HisTag-HRP was diluted 1:5000 in 0.05% Tween20/1×PBS and added to plates for 1 hr at RT. Plates were then washed 6 times with 0.05% Tween 20/1×PBS, and TMB was added to develop blue color. Reactions were stopped with 2N […] and light absorbance at 450 nm was read on a BioTek plate reader. Absorbance versus IL-2 concentration is graphed for human IL-2Rα and IL-2Rβ.

[14] = molecular target: T6, recombinant His-tagged human IL-2Rβ (human, UniProt P14784 27-240, limits assumed); experiment: ELISA, coated His-tagged human IL-2Rβ, OD 450 nm
T6 construct: also called IL-2Rβ-HIS; IL-15Rβ-HIS
T6 sequence (looked up): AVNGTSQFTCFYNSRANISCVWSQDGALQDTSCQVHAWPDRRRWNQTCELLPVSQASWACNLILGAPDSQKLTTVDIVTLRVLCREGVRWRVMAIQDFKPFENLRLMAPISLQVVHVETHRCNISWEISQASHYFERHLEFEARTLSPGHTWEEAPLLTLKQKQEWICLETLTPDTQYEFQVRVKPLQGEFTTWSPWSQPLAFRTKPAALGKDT
Experimental: as §2

EC50 (biotinylated PD-L1 [1]): 0.26 nM | IC50 [2]: 128 nM | Kd [3]: 0.363 nM | koff [3]: 0.000347 s⁻¹ | kon [3]: 956000 M⁻¹ s⁻¹ | EC50 [4]: 0.00668 nM | NFAT reporter EC50 [5]: 0.549 nM | IC50 [6]: 128 nM | EC50 (biotinylated PD-L1 [7]): 0.164 nM | Kd [8]: 0.363 nM | IC50 [9]: 128 nM | Jurkat Reporter assay EC50 [10]: 0.55 nM | NFAT reporter EC50 [11]: 0.549 nM | EC50 [12]: 0.164 nM
B1: anti-PD-L1 IgG1 antibody EP205/EP206 (2019EP69-F03) (antibody, V domains shown)
VH: QVQLVQSGAEVKKPGSSVKVSCKASGGTFSSYAISWVRQAPGQGLEWMGGIIPIFGTANYAQKFQGRVTITADESTSTAYMELSSLRSEDTAVYYCARDKWYGSAWRGDYWGQGTLVTVSS
VL: QSVLTQPPSASGTPGQRVTISCSGSYSNIGSNFVNWYQQLPGTAPKLLIHFNNQRPSGVPDRFSGSRSGTSASLAISGLQSEDEADYFCSTWDDSLKGPIFGGGTKLTVLG
notes: also called EP206/EP205
binding result [13]: no binding (tested: LOG(IL-2(nM)) about 1.8 (about 70 nM)) | binding result [14]: no binding (tested: LOG(IL-2(nM)) about 1.8 (about 70 nM))
